# From article PMC8374900 (ACS Omega, 2021)
# B1: endo_N-BAR L187C (C108A) labeled with A488 (domain or fragment, rat, UniProt O35179 1-247, looked up)
# chain: MSVAGLKKQFHKATQKVSEKVGGAEGTKLDDDFKEMERKVDVTSRAVMEIMTKTIEYLQPNPASRAKLSMINTMSKIRGQEKGPGYPQAEALLAEAMLKFGRELGDDANFGPALGEVGEAMRELSEVKDSLDMEVKQNFIDPLQNLHDKDLREIQHHLKKLEGRRLDFDYKKKRQGKIPDEELRQACEKFDESKEIAESSMFNLLEMDIEQVSQLSALVQAQLEYHKQAVQILQQVTVRLEERIRQA
# modifications: Alexa Fluor 488 C5-maleimide on the introduced Cys 187
# Molecular target: the molecule itself
# Test: AUC
protein,measurement,value
B1,stoichiometry N,2
